Experimental data published in patent US20040170969.

System: recombinant MOB expressed as a GST-fusion protein

Sequence of FLAG-Ndr (cells treated with okadaic acid) (chain, as listed by the source): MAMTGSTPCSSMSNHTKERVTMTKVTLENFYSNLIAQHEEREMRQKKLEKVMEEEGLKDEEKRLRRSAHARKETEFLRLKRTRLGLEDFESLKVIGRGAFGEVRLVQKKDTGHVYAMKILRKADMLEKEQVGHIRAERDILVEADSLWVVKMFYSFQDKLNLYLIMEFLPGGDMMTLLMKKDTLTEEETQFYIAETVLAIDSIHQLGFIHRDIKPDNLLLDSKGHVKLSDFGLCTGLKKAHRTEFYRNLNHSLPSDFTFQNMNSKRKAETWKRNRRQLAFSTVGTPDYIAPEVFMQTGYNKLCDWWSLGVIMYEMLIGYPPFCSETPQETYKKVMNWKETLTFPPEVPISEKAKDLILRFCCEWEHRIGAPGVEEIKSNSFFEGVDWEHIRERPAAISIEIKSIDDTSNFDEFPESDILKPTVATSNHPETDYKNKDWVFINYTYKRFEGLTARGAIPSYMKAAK

Substance: FLAG-Ndr (cells treated with okadaic acid)
- phosphorylation of GST-MOB by Ndr (FIG. 19): recombinant MOB expressed as a GST-fusion protein is specifically phosphorylated by active Ndr
